From the DeepSol protein solubility set

Assay: soluble on expression in E. coli; label from the status in PepcDB or PDB records

Soluble on expression in E. coli, not soluble:
MQPEEGTGWLLELLSEVQLQQYFLRLRDDLNVTRLSHFEYVKNEDLEKIGMGRPGQRRLWEAVKRRKALCKRKSWMSKVFSGKRLEAEFPPHHSQSTFRKTSPAPGGPAGEGPLQSLTCLIGEKDLRLLEKLGDGSFGVVRRGEWDAPSGKTVSVAVKCLKPDVLSQPEAMDDFIREVNAMHSLDHRNLIRLYGVVLTPPMKMVTELAPLGSLLDRLRKHQGHFLLGTLSRYAVQVAEGMGYLESKRFIHRDLAARNLLLATRDLVKIGDFGLMRALPQNDDHYVMQEHRKVPFAWCAPESLKTRTFSHASDTWMFGVTLWEMFTYGQEPWIGLNGSQILHKIDKEGERLPRPEDCPQDIYNVMVQCWAHKPEDRPTFVALRDFLLEAQPTDMRALQDFEEPDKLHIQMNDVITVIEGRAENYWWRGQNTRTLCVGPFPRNVVTSVAGLSAQDISQPLQNSFIHTGHGDSDPRHCWGFPDRIDELYLGNPMDPPDLLSVELSTSRPPQHLGGVKKPTYDPVSEDQDPLSSDFKRLGLRKPGLPRGLWLAKPSARVPGTKASRGSGAEVTLIDFGEEPVVPALRPCPPSLAQLAMDACSLLDETPPQSPTRALPRPLHPTPVVDWDARPLPPPPAYDDVAQDEDDFEICSINSTLVGAGVPAGPSQGQTNYAFVPEQARPPPPLEDNLFLPPQGGGKPPSSAQTAEIFQALQQECMRQLQAPGSPAPSPSPGGDDKPQVPPRVPIPPRPTRPHVQLSPAPPGEEETSQWPGPASPPRVPPREPLSPQGSRTPSPLVPPGSSPLPPRLSSSPGKTMPTTQSFASDPKYATPQVIQAPGAGGPCILPIVRDGKKVSSTHYYLLPERPSYLERYQRFLREAQSPEEPTPLPVPLLLPPPSTPAPAAPTATVRPMPQAALDPKANFSTNNSNPGARPPPPRATARLPQRGCPGDGPEAGRPADKIQMAMVHGVTTEECQAALQCHGWSVQRAAQYLKVEQLFGLGLRPRGECHKVLEMFDWNLEQAGCHLLGSWGPAHHKR, MGGSHHHHHHGMASALAPKQDPKPKFQEGERVLCFHGPLLYEAKCVKVAIKDKQVKYFIHYSGWNKNWDEWVPESRVLKYVDTNLQKQRELQKANQEQYAEGKMRGAAPGKKTSGLQQKNVEVKTKKNKQKTPGNGDGGSTSETPQPPRKKRARVDPTVENEETFMNRVEVKVKIPEELKPWLVDDWDLITRQKQLFYLPAKKNVDSILEDYANYKKSRGNTDNKEYAVNEVVAGIKEYFNVMLGTQLLYKFERPQYAEILADHPDAPMSQVYGAPHLLRLFVRIGAMLAYTPLDEKSLALLLNYLHDFLKYLAKNSATLFSASDYEVAPPEYHRKAV, MSGWPRIYYKLLNLPLSILVKSKSIPAEPAQELGLDTSRPIMYVLPYNSKADLLTLRAQCLAHDLPDPLEPLEIDGALLPRYVFIHGGPRVFTYYTPKEESVKLFHDYLDLHRSNPALDVQMVPVSVMFGRAPGREKGEDNPPLRMLNGVQKFFAISWLGRDSFVRFSPSVSLRRMADEHGTDKIIAQKLARVARMHFARQRLAAVGPRLPARQDLFNKLLASKAIARAVEDEARSKKISHEKAQQNAIALMEEIAANFSYEMIRLTDRILGFTWNRLYQGINVHNAERVRQLAHDGHEIVYVPCHRSHMDYLLLSYVLYHQGLVPPHIAAGINLNFWPAGPIFRRLGAFFIRRTFKGNKLYSTVFREYLGELFSRGYSVEYFVEGGRSRTGRLLDPKTGTLSMTIQAMLRGGTRPITLVPIYIGYEHVMEVGTYAKELRGATKEKESLPQMLKGLSKLRNLGQGYVNFGEPMPLMTYLNQHVPEWRESIDPIEAIRPAWLTPTVNSIAADLMVRINNAGAANAMNLCCTALLASRQRSLTREQLTEQLDCYLDLMRNVPYSTDSTVPAASAGELIAHALQMNKFEVEKDTIGDIIILPREQAVLMTYYRNNIAHMLIMPSLMAAIITQHRRISRDALQQHVEALYPMLKAELFLRWEREELASVIDALASEMQRQGLITLQDDELHINPTHSRTLQLLAAGARETLQRYAITFWLLSANPSINRSTLEKESRTVAQRLSVLHGINAPEFFDKAVFSSLVLTLRDEGYISDTGDAEPAETMKIYQMLADLITSDVRLTIESATQGE, MSTWRDSLLPASFRGVGFFIEKAVVPVGRKGQLHEFPQRDEPYFESLGKQAQVHTLTAFIVGRDCFEKRDNLLQALEKDGAGELVHPWLGRMQVQV, MIYQPDENRYHTMEYRRCGRSGVKLPAISLGLWHNFGDTTRVENSRALLQRAFDLGITHFDLANNYGPPPGSAECNFGRILQEDFLPWRDELIISTKAGYTMWDGPYGDWGSRKYLIASLDQSLKRMGLEYVDIFYHHRPDPETPLKETMKALDHLVRHGKALYVGISNYPADLARQAIDILEDLGTPCLIHQPKYSLFERWVEDGLLALLQEKGVGSIAFSPLAGGQLTDRYLNGIPEDSRAASGSRFLKPEQITADKLEKVRRLNELAARRGQKLSQMALAWVLRNDNVTSVLIGASKPSQIEDAVGMLANRRFSAAECAEIDAILEGRF, MGSDKIHHHHHHMESIENSYGRLLLESQLPDSAKQLAQPLKSVVILRGKMICQRCHYQLDEEARLPSGAYYCRFCLVFGRNQSDKLLYAIPPMHFPKGNYLVWGGQLTAYQEMISQQLLINMQNQKTTLVHAVTGAGKTEMIYAAIEAVINTGGWVCIASPRVDVCVEVATRLSQAFSCSICLMHAESLPYQRAPIIVATTHQLLKFHKAFDLLIIDEVDAFPFVNNIQLHYAASQALKEGGAKILLTATSTRTLERKVNKGEVVKLTLARRFHNRPLVIPKFIRSFNLFKMIHRQKLPLKILKYLKKQRKTGYPLLIFLPTIIMAESVTAILKELLPAEQIACVSSQSQNRKEDITAFRQGKKTILITTSILERGVTFPQIDVFVLGSHHRVYSSQSLVQIAGRVGRSIDRPDGTLYFFHEGISKAMLLARKEIKEMNYKGYSHDLSTMSTN, MSLPFTTILRMSRSRLVKQKGNKKRMTTVVSNAREIAAIDLGSNSFHMVVAKVVDQDLQLISRHKQRVRLAAGLDEQKNLDEESIQRGLECLAMFAERLQGFEPRNVRIAATHTLRQARNANLFIQRALDVLPFPIEIIPGSEEARLIYLGVAHTQPQADSMLVVDIGGGSTEMIIGKGFEAELLNSKQMGCVNFTERYFANGKLSRKNFAQAIVASEQKLESIASKYRKKGWQMAFGSSGTIKAIHEVLIGQGHEDGLITFERLSKLIEKLCEWDSIDDLQLPGLTDDRKPVFAAGVAILSAIFHGLNIKEMHFSDGALREGLLYEMEDRFKYSDIRLRTTENLAAKHLVDLEHAAKVKGHAREFLAQVANELGLPEGSELCDLLEWGALLHEVGLSINLQGFHRHSAYILRHNNMAGFNSEQQLVLSNLARFQRKSLKLNELDDFSLFKKKHIIGLIRVLRLAIVVNGQRNDDPLPPLTLSAKDDEWRLECEQPDWLENNKLLHADLQTEQEYWREVGWQLLFEGHHHHHH, MGSDKIHHHHHHMYKYKFTVFTPTYNRAHLLENLYNDLKAQTYDFNDFEWLIVDDGSSDSTKELVEKFISENKLNIRYIYKENGGKHTAINLGVKNADGELFFIVDSDDGLIKDSLEIANDEWDSLENKEGFSGVVGLCVYPSGDLIGTEMPEDKKICHFADLYFKYGVKGDKSIVFVTDELIKFPFPERKEVRFLPESVVWNEMSKYYKVICVNKPMIIRDYLDDGLTKNILSKNALRGRALEFLYLINQNTYPLSRYPYMWIKNYINLARYSLLSDSHYFGELRKVSDKLLYLALFPLGYYKYIGQRKLVSK, MGSDKIHHHHHHMEKILTKQEIEALLAAVFEGKIEPDKELAKAEATVQSYDLFSSESKGNIPNLDIIYDSFIRYQRGTLSNRLGRIVEIKKVGAASFKFDDFLHTMPSPVAMAVYKADPLKGAALIAFDSTLVFTIVDCILGGTGSSVVPTVGNRMFTSIELRLVQKIVMDVLADLEKAWAPIYATKMGFLRMEMNPRLVNIVPPEYQVVTMEMEIQIEEIIGKMIFAVPLTTIDPVREKLKNGAQVDMMAIDPQWSFRLSKELLEAPLDLSVEVGGAIISMDELLNLTPGDTIMLDTPCNSDLVVKVGGVSKFMSAPGLRHGNKAAQITTIIGKGREQ, MAHHHHHHMTSTTQPKWTRLPIRTRPHRNPLAENSDNHPDCPAELQEQCTTLFPGMDNPVITLVDVGCAFGGMLFSLAPDFPDMCMLGLEIRPKVVEFAQNKVMKLREGAATDGTSHHYRNVWFEQLNVMKFGSNCFNKGQLQALFFCYPDPHWKRKNVRRRIISPGLVQEYAYWLKVGGFLFTVSDVEELERWMVTCLDGCPLFRQLSQEELAGNEMVRKMLDYAANSSEDAQRTTRKGLQKHYAVHVRVP, MSLEEETYVVFDVETTGLSAVYDTIIELAAVKVKGGEIIDKFEAFANPHRPLSATIIELTGITDDMLQDAPDVVDVIRDFREWIGDDILVAHNASFDMGFLNVAYKKLLEVEKAKNPVIDTLELGRFLYPEFKNHRLNTLCKKFDIELTQHHRAIYDTEATAYLLLKMLKDAAEKGIQYHDELNENMGQSNAYQRSRPYHATLLAVNSTGLKNLFKLVSLSHIHYFYRVPRIPRSQLEKYREGLLIGSACDRGEVFEGMMQKSPEEVEDIASFYDYLEVQPPEVYRHLLELELVRDEKALKEIIANITKLGEKLNKPVVATGNVHYLNDEGHHHHHH, MGSDKIHHHHHHATPAEIPFDAVLAGQTPMLFKGLVRDWPLVQAGLGSPQAARDYIRAHDRGVPVVGYTGDPAIKGRFFYNDTLTGLNFKAERAPLEAFLGRIEAVEGQENAPAIYIGSTDLDAYFPSLKAENDLGLGPEVYGPQPPMAGIWLGNRTVAAAHYDMSNNIAVCAVGRRRFTLFPPDQVANLYPGPLEPTPGGQVVSMVDFETPDFDRHPRFREALASAQVAEMEPGDVLVYPALWWHQVEALDGFNVLMNYWWNATPAFVDTPMTTLLHGLLSLRDRPDFEKQGWKALFDYYVFGPAERAGAHLPDDARGPLGALDDLKARRLRAWLLDRLNR, MDFQIEEDRLGMRIQSETIELTKDEKGVVGISIGGGGPYCPCVYVVQVFDKSPAFKDGRIRCGDEIVAINGITVKGERKSAVAQLIQVSLNPVKITINKLEEANTKGKTLDILIKKVKHKVVEFVDQDSADALGLSRAILTNDPLAEKEKILEENAEFYRHLVAYFGDMFQYQQKISECQKEFGSIFCDLAAHEKQQTANEAFSSFGDKHRMIAKKQSESAVPLQKMVSDLQVYIDHVVPDTRLTIKKYLDVKYEYLSYCLKLKEMDDEEVEFVAIQEPLYRVETGNYEYRVMLRCRQECRARFMKMRDDVMVKIELLDQKHVRDIAQHLAIFAKTMAKCQQECAEILKERIDVPIEIDLEQLNLNMNTSDGKANGEEEMGQDAIVLNDNPLEGDLIDVNDIGSSTEFNEPRISLRRDSQNDTSQPLLGAPDSPLEELSLIDIS, MGSDKIHHHHHHMLKNDQLDQWDRDNFFHPSTHLAQHARGESANRVIKTASGVFIEDRDGTKLLDAFAGLYCVNVGYGRQEIAEAIADQARELAYYHSYVGHGTEASITLAKMILDRAPKNMSKVYFGLGGSDANETNVKLIWYYNNILGRPEKKKIISRWRGYHGSGLVTGSLTGLELFHKKFDLPVEQVIHTEAPYYFRREDLNQTEEQFVAHCVAELEALIEREGADTIAAFIGEPILGTGGIVPPPAGYWEAIQTVLNKHDILLVADEVVTGFGRLGTMFGSDHYGLEPDIITIAKGLTSAYAPLSGSIVSDKVWKVLEQGTDENGPIGHGWTYSAHPIGAAAGVANLKLLDELNLVSNAGEVGAYLNATMAEALSQHANVGDVRGEGLLCAVEFVKDRDSRTFFDAADKIGPQISAKLLEQDKIIARAMPQGDILGFAPPFCLTRAEADQVVEGTLRAVKAVLG, MSLENYWVDERTLVVSGDFFGVSTGLLGGWKRVRHAFNHTVSEEFHSMEPAEYLRKVARGYGLKSYFGLLTSVPIEKLSVKGCGEVTVFATAGVMNPNERVGTINIIAVFECRMSRAAMLNAIITATEAKTKALLEEGHNFTGTNTDAVVVLCTQKGGYHRYCGPASEVGQKLWRCAGEAVKDSLARWEGHHHHHH
